Experimental data published in US20160083473A1 (NUMAB THERAPEUTICS, published 2016).

T1: mouse IL23R Fc chimera (R&D Systems, Cat. No. 1686-MR-050) (mouse, UniProt Q8K4B4 24-372)
T1 construct: bought; Fc part of the bought chimera not given
T1 sequence (looked up): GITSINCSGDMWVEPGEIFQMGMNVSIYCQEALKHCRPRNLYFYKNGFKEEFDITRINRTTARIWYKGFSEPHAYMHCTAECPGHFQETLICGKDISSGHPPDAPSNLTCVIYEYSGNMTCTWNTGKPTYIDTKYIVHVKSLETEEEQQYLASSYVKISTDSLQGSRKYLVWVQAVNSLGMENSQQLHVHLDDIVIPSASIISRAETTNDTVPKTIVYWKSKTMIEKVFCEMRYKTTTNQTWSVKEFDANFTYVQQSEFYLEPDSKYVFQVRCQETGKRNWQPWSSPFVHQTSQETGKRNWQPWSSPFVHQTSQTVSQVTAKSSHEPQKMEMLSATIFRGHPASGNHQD

T2: cynomolgus IL23R Fc chimera (cynomolgus monkey, UniProt G7NWY5 24-353)
T2 construct: source of the cynomolgus chimera is not clearly stated; also called cyno IL23R; not shown: Fc part of the chimera
T2 sequence: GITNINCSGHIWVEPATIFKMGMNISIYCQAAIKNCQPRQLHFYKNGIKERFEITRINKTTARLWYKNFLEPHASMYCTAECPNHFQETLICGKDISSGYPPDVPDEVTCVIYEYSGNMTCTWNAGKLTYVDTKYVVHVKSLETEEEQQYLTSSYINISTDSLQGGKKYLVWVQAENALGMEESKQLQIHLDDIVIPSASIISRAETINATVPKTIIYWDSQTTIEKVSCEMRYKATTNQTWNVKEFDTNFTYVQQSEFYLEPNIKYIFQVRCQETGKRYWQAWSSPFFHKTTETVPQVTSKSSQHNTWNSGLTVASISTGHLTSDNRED

T3: human heterodimeric single-chain CD3γδ extracellular domain (produced in-house) (human)
T3 chain 1: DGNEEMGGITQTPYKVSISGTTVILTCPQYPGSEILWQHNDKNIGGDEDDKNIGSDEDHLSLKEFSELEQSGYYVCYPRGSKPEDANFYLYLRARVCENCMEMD
T3 chain 2: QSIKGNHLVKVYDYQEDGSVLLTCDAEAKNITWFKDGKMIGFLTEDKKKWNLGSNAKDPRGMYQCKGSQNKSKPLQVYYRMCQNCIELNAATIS


Experiments:
[1] = target: T1, mouse IL23R Fc chimera (R&D Systems, …); experiment: SPR, IL23R Fc chimera captured by anti-human IgG Fc, scFv injected
Description: (§1) Binding affinities of anti-IL23R scFvs were measured by surface plasmon resonance (SPR) using a MASS-1 SPR instrument (Sierra Sensors). […] After immobilization, 1 ug/ml recombinant human IL23R Fc chimera (R&D Systems, Cat. No. 1400-IR-050) was captured by the anti-human IgG antibody while a second immobilized channel served as a control where the capture was replaced by buffer. Two-fold serial dilutions of human scFvs ranging from 180 to 2.81 nM were injected into both flow cells for 3 min and dissociation of the scFvs from the chimera on the sensor chip was allowed to proceed for 700 sec. After each injection cycle, surfaces were regenerated with two 1 min injections of 10 mM glycine-HCl pH 1.5. In a similar manner the affinities for cynomolgus and mouse IL23R Fc chimera (R&D Systems, Cat. No. 1686-MR-050) was measured. The apparent dissociation (kd) and association (ka) rate constants and the apparent dissociation equilibrium constant (KD) were calculated with the MASS-1 analysis software (Analyzer, Sierra Sensors) using one-to-one Langmuir binding model.

[2] = target: T4, recombinant human IL23R Fc chimera (R&D Systems, Cat. No. 1400-IR-050) (human, UniProt Q5VWK5 24-353); experiment: as above
T4 construct: bought
Description: as §1

[3] = target: T2, cynomolgus IL23R Fc chimera; experiment: as above
Description: as §1

[4] = target: T3, human heterodimeric single-chain CD3γδ …; experiment: SPR, human single-chain CD3 ECD immobilised by amine coupling, scDb injected

Kd [1] [nM]	koff [1] [s⁻¹]	kon [1] [M⁻¹ s⁻¹]	Kd [2] [nM]	koff [2] [s⁻¹]	kon [2] [M⁻¹ s⁻¹]	Kd [3] [nM]	koff [3] [s⁻¹]	kon [3] [M⁻¹ s⁻¹]	Kd [4] [nM]	koff [4] [s⁻¹]	kon [4] [M⁻¹ s⁻¹]	Binder
2.21	0.00418	1.89e+06	0.116	0.000259	2.24e+06	0.124	0.000361	2.92e+06	–	–	–	humanized anti-IL23R scFv 14-11-D07-sc01 (scFv, V domains shown, tested as a single-chain Fv; CDR graft on a Vk1/VH3 human acceptor framework) VH: EVQLVESGGGLVQPGGSLRLSCAASGIDFNSNYYMCWVRQAPGKGLEWIGCIYVGSHVNTYYANWAKGRFTISRDNSKNTVYLQMNSLRAEDTAVYYCATSGSSVLYFKFWGQGTLVTVSS VL: DIQMTQSPSSLSASVGDRVTITCQASENIYSFLAWYQQKPGKAPKLLIYSASKLAAGVPSRFSGSGSGTDFTLTISSLQPEDFATYYCQQTNRYSNPDIYNVFGQGTKLTVLG
–	–	–	–	–	–	–	–	–	11.6	0.00126	109000	PRO165, bispecific anti-IL23R x CD3ε single-chain diabody (bispecific antibody, VL(anti-IL23R 14-11-D07-sc01)-G4S-VH(anti-CD3 clone 6)-(G4S)4-VL(anti-CD3 clone 6)-G4S-VH(anti-IL23R 14-11-D07-sc01); also called scDb) DIQMTQSPSSLSASVGDRVTITCQASENIYSFLAWYQQKPGKAPKLLIYSASKLAAGVPSRFSGSGSGTDFTLTISSLQPEDFATYYCQQTNRYSNPDIYNVFGQGTKLTVLGGGGGSEVQLVESGGGLVQPGGSLRLSCAASGFPLSSYAMIWVRQAPGKGLEWIGMILRAGNIYYASWVKGRFTISRDNSKNTVYLQMNSLRAEDTAVYYCARRHYNREGYPIGIGDLWGQGTLVTVSSGGGGSGGGGSGGGGSGGGGSDIQMTQSPSSLSASVGDRVTITCQSSESVYNNKRLSWYQQKPGKAPKLLIYTASSLASGVPSRFSGSGSGTDFTLTISSLQPEDFATYYCQGEFTCSNADCFTFGQGTKLTVLGGGGGSEVQLVESGGGLVQPGGSLRLSCAASGIDFNSNYYMCWVRQAPGKGLEWIGCIYVGSHVNTYYANWAKGRFTISRDNSKNTVYLQMNSLRAEDTAVYYCATSGSSVLYFKFWGQGTLVTVSS
